Target: T1, NAA10 A6P-V5 (human, UniProt P41227-1 1-235, A6P)
T1 construct: NAA10, human, patient variant c.16G>C p.(A6P), made by site-directed mutagenesis of pcDNA3.1/NAA10-WT-V5; Same construct as m1 with the variant found in a patient; also called NAA10 p.(A6P); c.16G>C p.(Ala6Pro); source: HeLa, transfected, in lysate
T1 sequence (looked up): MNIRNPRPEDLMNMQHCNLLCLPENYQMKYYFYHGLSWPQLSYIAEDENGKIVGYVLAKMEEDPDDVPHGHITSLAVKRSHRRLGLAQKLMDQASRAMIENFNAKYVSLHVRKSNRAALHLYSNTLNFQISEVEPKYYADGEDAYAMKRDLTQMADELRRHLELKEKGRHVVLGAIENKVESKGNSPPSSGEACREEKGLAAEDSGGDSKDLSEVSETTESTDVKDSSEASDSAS
Assay: co-IP; anti-V5 immunoprecipitation (Dynabeads Protein G) of NAA10-V5 from lysates of transfected HeLa cells; lysis buffer 50 mM Tris-HCl pH 8.0, 150 mM NaCl, 5 mM EDTA, 0.5% NP-40, 4 °C; co-precipitated NAA15 detected by Western blot
Conditions: partners not purified

fold less NAA15 co-immunoprecipitated than with NAA10 WT-V5: 5 fold
B1: NAA15 (natural protein, human (endogenous in HeLa), UniProt Q9BXJ9 1-866, looked up)
chain: MPAVSLPPKENALFKRILRCYEHKQYRNGLKFCKQILSNPKFAEHGETLAMKGLTLNCLGKKEEAYELVRRGLRNDLKSHVCWHVYGLLQRSDKKYDEAIKCYRNALKWDKDNLQILRDLSLLQIQMRDLEGYRETRYQLLQLRPAQRASWIGYAIAYHLLEDYEMAAKILEEFRKTQQTSPDKVDYEYSELLLYQNQVLREAGLYREALEHLCTYEKQICDKLAVEETKGELLLQLCRLEDAADVYRGLQERNPENWAYYKGLEKALKPANMLERLKIYEEAWTKYPRGLVPRRLPLNFLSGEKFKECLDKFLRMNFSKGCPPVFNTLRSLYKDKEKVAIIEELVVGYETSLKSCRLFNPNDDGKEEPPTTLLWVQYYLAQHYDKIGQPSIALEYINTAIESTPTLIELFLVKAKIYKHAGNIKEAARWMDEAQALDTADRFINSKCAKYMLKANLIKEAEEMCSKFTREGTSAVENLNEMQCMWFQTECAQAYKAMNKFGEALKKCHEIERHFIEITDDQFDFHTYCMRKITLRSYVDLLKLEDVLRQHPFYFKAARIAIEIYLKLHDNPLTDENKEHEADTANMSDKELKKLRNKQRRAQKKAQIEEEKKNAEKEKQQRNQKKKKDDDDEEIGGPKEELIPEKLAKVETPLEEAIKFLTPLKNLVKNKIETHLFAFEIYFRKEKFLLMLQSVKRAFAIDSSHPWLHECMIRLFNTAVCESKDLSDTVRTVLKQEMNRLFGATNPKNFNETFLKRNSDSLPHRLSAAKMVYYLDPSSQKRAIELATTLDESLTNRNLQTCMEVLEALYDGSLGDCKEAAEIYRANCHKLFPYALAFMPPGYEEDMKITVNGDSSAEAEELANEI
notes: NAA15, large auxiliary subunit of the NatA complex, endogenous in HeLa cells, detected with NAA15 rabbit polyclonal antibody (previously called anti-NATH); also called auxiliary subunit of NatA; NATH; source: endogenous, HeLa lysate
